Legend:
CAR receptor [1] = target: T1, CAR receptor (human (endogenous in A549), UniProt P78310 20-365); test: flow cytometry on cells; A549 cells in PBS + 0.2% sodium azide incubated with or without 200 nM 5FK or 16FK, 45 min on ice (100 nM in the legend), then combined with Alexa Fluor 488-labelled Ad5.eGFP without defensin (virus pre-incubated with 20 µM HD5-Abu was equivalent to virus alone), 45 min on ice; details: one partner purified
T1 construct: source: endogenous, on A549 cells
T1 sequence: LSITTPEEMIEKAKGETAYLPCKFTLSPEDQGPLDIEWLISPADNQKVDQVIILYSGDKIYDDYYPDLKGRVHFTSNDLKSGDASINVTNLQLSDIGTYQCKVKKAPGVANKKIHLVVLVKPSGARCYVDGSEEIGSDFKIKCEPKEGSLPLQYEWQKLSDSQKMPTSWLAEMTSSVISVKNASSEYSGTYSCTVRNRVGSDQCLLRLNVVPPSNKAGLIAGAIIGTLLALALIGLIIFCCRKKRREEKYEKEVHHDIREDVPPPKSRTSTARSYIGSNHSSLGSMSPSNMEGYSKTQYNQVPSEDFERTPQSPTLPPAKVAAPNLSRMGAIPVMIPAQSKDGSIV

CAR receptor [2] = target: T1, CAR receptor; test: flow cytometry on cells; as a6, but the Alexa Fluor 488-labelled Ad5.eGFP was pre-incubated with 20 µM HD5 for 45 min on ice; details: one partner purified

B1: recombinant HAdV-5 fiber knob (domain or fragment)
chain: GAITVGNKNNDKLTLWTTPAPSPNCRLNAEKDAKLTLVLTKCGSQILATVSVLAVKGSLAPISGTVQSAHLIIRFDENGVLLNNSFLDPEYWNFRNGDLTEGTAYTNAVGFMPNLSAYPKSHGKTAKSNIVSQVYLNGDKTKPVTLTITLNGTQETGDTTPSAYSMSFSWDWSGHNYINEIFATSSYTFSYIAQE
notes: fiber knob, residues 387-581 of the HAdV-5 fiber; also called 5FK
For B1, the “fold reduction of HAdV-5 binding to cells with 5FK compared to 16FK” value (CAR receptor [1]) was 5.2 fold and the “fold reduction of HAdV-5 binding to cells with 5FK compared to 16FK, virus pre-incubated with HD5” value (CAR receptor [2]) was 1.6 fold.
